Measured values: the supplement of paper PMC5998384

How the values were obtained:
HeLa Kyoto [1] = assay: solubility in G1/S (NP-40 vs SDS abundance) (log2 ratio); higher = more soluble; conditions: cell cycle stage: G1/S
HeLa Kyoto [2] = assay: solubility change mitosis vs G1/S (difference of NP-40 vs SDS log2 ratios) (log2 ratio difference); higher = more soluble in mitosis
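Throughout, for solubility change mitosis vs G1/S (difference of NP-40 vs SDS log2 ratios): synchronized HeLa Kyoto cells (double thymidine block for G1/S, nocodazole release for mitosis), protein amounts in NP-40 versus SDS lysates quantified by mass spectrometry, three biological replicates.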
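Throughout, for solubility in G1/S (NP-40 vs SDS abundance): HeLa Kyoto cells arrested at G1/S by double thymidine block, proteins quantified by TMT10plex mass spectrometry in mild NP-40 versus SDS extracts, three biological replicates.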

## MAAAVAAPLAAGGEEAAATTSVPGSPGLPGRRSAERALEEAVATGTLNLSNRRLKHFPRGAARSYDLSDITQADLSRNRFPEVPEAACQLVSLEGLSLYHNCLRCLNPALGNLTALTYLNLSRNQLSLLPPYICQLPLRVLIVSNNKLGALPPDIGTLGSLRQLDVSSNELQSLPSELCGLSSLRDLNVRRNQLSTLPEELGDLPLVRLDFSCNRVSRIPVSFCRLRHLQVILLDSNPLQSPPAQVCLKGKLHIFKYLSTEAGQRGSALGDLAPSRPPSFSPCPAEDLFPGHRYDGGLDSGFHSVDSGSKRWSGNESTDEFSELSFRISELAREPRGPRERKEDGSADGDPVQIDFIDSHVPGEDEERGTVEEQRPPELSPGAGDRERAPSSRREEPAGEERRRPDTLQLWQERERRQQQQSGAWGAPRKDSLLKPGLRAVVGGAAAVSTQAMHNGSPKSSASQAGAAAGQGAPAPAPASQEPLPIAGPATAPAPRPLGSIQRPNSFLFRSSSQSGSGPSSPDSVLRPRRYPQVPDEKDLMTQLRQVLESRLQRPLPEDLAEALASGVILCQLANQLRPRSVPFIHVPSPAVPKLSALKARKNVESFLEACRKMGVPEADLCSPSDLLQGTARGLRTALEAVKRVGGKALPPLWPPSGLGGFVVFYVVLMLLLYVTYTRLLGS [LRCH4]
HeLa Kyoto [1]
  solubility in G1/S (log2): 0.302
HeLa Kyoto [2]
  solubility change mitosis (log2): -0.305

## MEEEQDLPEQPVKKAKMQESGEQTISQVSNPDVSDQKPETSSLASNLPMSEEIMTCTDYIPRSSNDYTSQMYSAKPYAHILSVPVSETAYPGQTQYQTLQQTQPYAVYPQATQTYGLPPFGALWPGMKPESGLIQTPSPSQHSVLTCTTGLTTSQPSPAHYSYPIQASSTNASLISTSSTIANIPAAAVASISNQDYPTYTILGQNQYQACYPSSSFGVTGQTNSDAESTTLAATTYQSEKPSVMAPAPAAQRLSSGDPSTSPSLSQTTPSKDTDDQSRKNMTSKNRGKRKADATSSQDSELERVFLWDLDETIIIFHSLLTGSYAQKYGKDPTVVIGSGLTMEEMIFEVADTHLFFNDLEECDQVHVEDVASDDNGQDLSNYSFSTDGFSGSGGSGSHGSSVGVQGGVDWMRKLAFRYRKVREIYDKHKSNVGGLLSPQRKEALQRLRAEIEVLTDSWLGTALKSLLLIQSRKNCVNVLITTTQLVPALAKVLLYGLGEIFPIENIYSATKIGKESCFERIVSRFGKKVTYVVIGDGRDEEIAAKQHNMPFWRITNHGDLVSLHQALELDFL [EYA3]
HeLa Kyoto [1]
  solubility in G1/S (log2): -0.0392
HeLa Kyoto [2]
  solubility change mitosis (log2): -0.0147

## ATAD5
HeLa Kyoto [1]
  solubility in G1/S (log2): -1.01
HeLa Kyoto [2]
  solubility change mitosis (log2): 0.557

## MVLKAFFPTCCVSTDSGLLVGRWVPEQSSAVVLAVLHFPFIPIQVKQLLAQVRQASQVGVAVLGTWCHCRQEPEESLGRFLESLGAVFPHEPWLRLCRERGGTFWSCEATHRQAPTAPGAPGEDQVMLIFYDQRQVLLSQLHLPTVLPDRQAGATTASTGGLAAVFDTVARSEVLFRSDRFDEGPVRLSHWQSEGVEASILAELARRASGPICLLLASLLSLVSAVSACRVFKLWPLSFLGSKLSTCEQLRHRLEHLTLIFSTRKAENPAQLMRKANTVASVLLDVALGLMLLSWLHGRSRIGHLADALVPVADHVAEELQHLLQWLMGAPAGLKMNRALDQVLGRFFLYHIHLWISYIHLMSPFVEHILWHVGLSACLGLTVALSLLSDIIALLTFHIYCFYVYGARLYCLKIHGLSSLWRLFRGKKWNVLRQRVDSCSYDLDQLFIGTLLFTILLFLLPTTALYYLVFTLLRLLVVAVQGLIHLLVDLINSLPLYSLGLRLCRPYRLADKPTALQPRGAHLPPPQLWLPPQALLGRPVPQAVPWGAHLPLEAERGQAGLRELLARLAPPHGHSQPSALPGWHQLSWRMSCALWTLLCAPEHGRPCYHTLGLEVIGSEQMWGWPARLAALHHWHCLPWDPLPTCCGHHGGEHSNPRCPEHCPMPTLCTQVQRVRPPQQPQVEGWSPWGLPSGSALAVGVEGPCQDEPPSPRHPLAPSAEQHPASGGLKQSLTPVPSGPGPSLPEPHGVYLRMFPGEVAL [PIGQ]
HeLa Kyoto [1]
  solubility in G1/S (log2): -0.0206
HeLa Kyoto [2]
  solubility change mitosis (log2): -0.119

## MAQRYDDLPHYGGMDGVGIPSTMYGDPHAARSMQPVHHLNHGPPLHSHQYPHTAHTNAMAPSMGSSVNDALKRDKDAIYGHPLFPLLALIFEKCELATCTPREPGVAGGDVCSSESFNEDIAVFAKQIRAEKPLFSSNPELDNLMIQAIQVLRFHLLELEKVHELCDNFCHRYISCLKGKMPIDLVIDDREGGSKSDSEDITRSANLTDQPSWNRDHDDTASTRSGGTPGPSSGGHTSHSGDNSSEQGDGLDNSVASPSTGDDDDPDKDKKRHKKRGIFPKVATNIMRAWLFQHLTHPYPSEEQKKQLAQDTGLTILQVNNWFINARRRIVQPMIDQSNRAVSQGTPYNPDGQPMGGFVMDGQQHMGIRAPGPMSGMGMNMGMEGQWHYM [MEIS1]
HeLa Kyoto [1]
  solubility in G1/S (log2): 0.363
HeLa Kyoto [2]
  solubility change mitosis (log2): -0.208

## MAAEEVLQTVDHYKTEIERLTKELTETTHEKIQAAEYGLVVLEEKLTLKQQYDELEAEYDSLKQELEQLKEAFGQSFSIHRKVAEDGETREETLLQESASKEAYYLGKILEMQNELKQSRAVVTNVQAENERLTAVVQDLKENNEMVELQRIRMKDEIREYKFREARLLQDYTELEEENITLQKLVSTLKQNQVEYEGLKHEIKRFEEETVLLNSQLEDAIRLKEIAEHQLEEALETLKNEREQKNNLRKELSQYISLNDNHISISVDGLKFAEDGSEPNNDDKMNGHIHGPLVKLNGDYRTPTLRKGESLNPVSDLFSELNISEIQKLKQQLMQVEREKAILLANLQESQTQLEHTKGALTEQHERVHRLTEHVNAMRGLQSSKELKAELDGEKGRDSGEEAHDYEVDINGLEILECKYRVAVTEVIDLKAEIKALKEKYNKSVENYTDEKAKYESKIQMYDEQVTSLEKTTKESGEKMAHMEKELQKMTSIANENHSTLNTAQDELVTFSEELAQLYHHVCLCNNETPNRVMLDYYRQSRVTRSGSLKGPDDPRGLLSPRLARRGVSSPVETRTSSEPVAKESTEASKEPSPTKTPTISPVITAPPSSPVLDTSDIRKEPMNIYNLNAIIRDQIKHLQKAVDRSLQLSRQRAAARELAPMIDKDKEALMEEILKLKSLLSTKREQIATLRAVLKANKQTAEVALANLKNKYENEKAMVTETMTKLRNELKALKEDAATFSSLRAMFATRCDEYVTQLDEMQRQLAAAEDEKKTLNTLLRMAIQQKLALTQRLEDLEFDHEQSRRSKGKLGKSKIGSPKVSGEASVTVPTIDTYLLHSQGPQTPNIRVSSGTQRKRQFSPSLCDQSRPRTSGASYLQNLLRVPPDPTSTESFLLKGPPSMSEFIQGHRLSKEKRLTVAPPDCQQPAASVPPQCSQLAGRQDCPTVSPDTALPEEQPHSSSQCAPLHCLSKPPHP [BICD1]
HeLa Kyoto [1]
  solubility in G1/S (log2): 0.652
HeLa Kyoto [2]
  solubility change mitosis (log2): -0.259

## MPLTGVGPGSCRRQIIRALCLLLLLLHAGSAKNIWKRALPARLAEKSRAEEAGAPGGPRQPRADRCPPPPRTLPPGACQAARCQADSECPRHRRCCYNGCAYACLEAVPPPPVLDWLVQPKPRWLGGNGWLLDGPEEVLQAEACSTTEDGAEPLLCPSGYECHILSPGDVAEGIPNRGQCVKQRRQADGRILRHKLYKEYPEGDSKNVAEPGRGQQKHFQ [WFDC1]
HeLa Kyoto [1]
  solubility in G1/S (log2): 0.101
HeLa Kyoto [2]
  solubility change mitosis (log2): 0.522

## MSRKISKESKKVNISSSLESEDISLETTVPTDDISSSEEREGKVRITRQLIERKELLHNIQLLKIELSQKTMMIDNLKVDYLTKIEELEEKLNDALHQKQLLTLRLDNQLAFQQKDASKYQELMKQEMETILLRQKQLEETNLQLREKAGDVRRNLRDFELTEEQYIKLKAFPEDQLSIPEYVSVRFYELVNPLRKEICELQVKKNILAEELSTNKNQLKQLTETYEEDRKNYSEVQIRCQRLALELADTKQLIQQGDYRQENYDKVKSERDALEQEVIELRRKHEILEASHMIQTKERSELSKEVVTLEQTVTLLQKDKEYLNRQNMELSVRCAHEEDRLERLQAQLEESKKAREEMYEKYVASRDHYKTEYENKLHDELEQIRLKTNQEIDQLRNASREMYERENRNLREARDNAVAEKERAVMAEKDALEKHDQLLDRYRELQLSTESKVTEFLHQSKLKSFESERVQLLQEETARNLTQCQLECEKYQKKLEVLTKEFYSLQASSEKRITELQAQNSEHQARLDIYEKLEKELDEIIMQTAEIENEDEAERVLFSYGYGANVPTTAKRRLKQSVHLARRVLQLEKQNSLILKDLEHRKDQVTQLSQELDRANSLLNQTQQPYRYLIESVRQRDSKIDSLTESIAQLEKDVSNLNKEKSALLQTKNQMALDLEQLLNHREELAAMKQILVKMHSKHSENSLLLTKTEPKHVTENQKSKTLNVPKEHEDNIFTPKPTLFTKKEAPEWSKKQKMKT [PIBF1]
HeLa Kyoto [1]
  solubility in G1/S (log2): 0.069
HeLa Kyoto [2]
  solubility change mitosis (log2): 0.297

## MAAQAAAAAQAAAAQAAQAEAADSWYLALLGFAEHFRTSSPPKIRLCVHCLQAVFPFKPPQRIEARTHLQLGSVLYHHTKNSEQARSHLEKAWLISQQIPQFEDVKFEAASLLSELYCQENSVDAAKPLLRKAIQISQQTPYWHCRLLFQLAQLHTLEKDLVSACDLLGVGAEYARVVGSEYTRALFLLSKGMLLLMERKLQEVHPLLTLCGQIVENWQGNPIQKESLRVFFLVLQVTHYLDAGQVKSVKPCLKQLQQCIQTISTLHDDEILPSNPADLFHWLPKEHMCVLVYLVTVMHSMQAGYLEKAQKYTDKALMQLEKLKMLDCSPILSSFQVILLEHIIMCRLVTGHKATALQEISQVCQLCQQSPRLFSNHAAQLHTLLGLYCVSVNCMDNAEAQFTTALRLTNHQELWAFIVTNLASVYIREGNRHQEVLYSLLERINPDHSFPVSSHCLRAAAFYVRGLFSFFQGRYNEAKRFLRETLKMSNAEDLNRLTACSLVLLGHIFYVLGNHRESNNMVVPAMQLASKIPDMSVQLWSSALLRDLNKACGNAMDAHEAAQMHQNFSQQLLQDHIEACSLPEHNLITWTDGPPPVQFQAQNGPNTSLASLL [MAU2]
HeLa Kyoto [1]
  solubility in G1/S (log2): -0.154
HeLa Kyoto [2]
  solubility change mitosis (log2): -0.0035

## MPPGKVLQPVLKMKVDELFLYWLSEASTQRMLQDCLRRIKAPGRDQPTPGDGEQPGAWPTAPLAAPRPSGLEPPGTPGPGPALPLGAASSPRNAPHVRGTRRSAGTRVVQTRKEEPLPPATSQSIPTFYFPRGRPQDSVNVDAVISKIESTFARFPHERATMDDMGLVAKACGCPLYWKGPLFYGAGGERTGSVSVHKFVAMWRKILQNCHDDAAKFVHLLMSPGCNYLVQEDFVPFLQDVVNTHPGLSFLKEASEFHSRYITTVIQRIFYAVNRSWSGRITCAELRRSSFLQNVALLEEEADINQLTEFFSYEHFYVIYCKFWELDTDHDLLIDADDLARHNDHALSTKMIDRIFSGAVTRGRKVQKEGKISYADFVWFLISEEDKKTPTSIEYWFRCMDLDGDGALSMFELEYFYEEQCRRLDSMAIEALPFQDCLCQMLDLVKPRTEGKITLQDLKRCKLANVFFDTFFNIEKYLDHEQKEQISLLRDGDSGGPELSDWEKYAAEEYDILVAEETAGEPWEDGFEAELSPVEQKLSALRSPLAQRPFFEAPSPLGAVDLYEYACGDEDLEPL [PPP2R3B]
HeLa Kyoto [1]
  solubility in G1/S (log2): 0.0833
HeLa Kyoto [2]
  solubility change mitosis (log2): -0.203
